# Laboratory results from the DeepSol protein solubility set.
# Assay: soluble on expression in E. coli; label from the status in PepcDB or PDB records
row,Sequence,soluble on expression in E. coli
1,MAHHHHHHMHSVVPMSSYIHPTQVSIGAAPRMAVQEMHPDAKRKGRRVVATMELKPGNAIFAAPPDIAVLYSPFARHICARCLVADVRACAEPLKAHHHHHQHPHQQPHATLSRSPVGASSSPSSLSSSTAAPAAAPVRPYCCPNCDQFVLCAPCVAQLLLDSGVDVTSAAGTDAVQTTAPLLQRRGEGKRGVSVVDERLHLHPLLRAHAISCAWYTSLPASIRAPGNDTDFLRFCLDYGARAYLGDTAMMRALATLDTNASVQSKESMQLCEVFARDRVVATFGKEPKAVTATTLATAASAKHMGIDPLSNQAGTHASGGIHRGGNSDGVRCRGSAAVSPFPPRYPISWTDLRDTLLRTRCNSIGFPYNTEETTGWSLHQTVCMLNHSCVPNAAVIMLYDSADAMAAAAALAARTGASHTAPPKERTQEAARRKASERIAAFRAVATSSESPYSTSYSPSLAGWIGIEATRPIAAGEEITISYVDLGSLGDDLQTRSRHLLEQYRFLCTCELCMRQRSLKR,not soluble
2,MGSDKIHHHHHHVDDGPCAARLRWTNSVMTEPLMPQTDVPFDELIIREYLLDNPDFFNRYPELLLAMRLPHMERGAISLVERRQEMLRQRVSQLEEEITSLLTMAARNEKIYQFNTELSFQLLNCADLVSLKEVLADSLKLQFNFSHVRLISVLDTDMKAIWDQRLHKGHYFGRLTQQEAKRLFGSEVGSVALTKLSEDNPVIFAIASQDATHFHPDMDNMLLEQLRRLLAHMLAKL,not soluble
3,MNSNKELMQRRSQAIPRGVGQIHPIFADRAENCRVWDVEGREYLDFAGGIAVLNTGHLHPKVVAAVEAQLKKLSHTCFQVLAYEPYLELCEIMNQKVPGDFAKKTLLVTTGSEAVENAVKIARAATKRSGTIAFSGAYHGRTHYTLALTGKVNPYSAGMGLMPGHVYRALYPCPLHGISEDDAIASIHRIFKNDAAPEDIAAIVIEPVQGEGGFYASSPAFMQRLRALCDEHGIMLIADEAQSGAGRTGTLFAMEQMGVAPDLTTFAKSIAGGFPLAGVTGRAEVMDAVAPGGLGGTYAGNPIACVAALEVLKVFEQENLLQKANDLGQKLKDGLLAIAEKHPEIGDVRGLGAMIAIELFEDGDHNKPDAKLTAEIVARARDKGLILLSCGPYYNVLRILVPLTIEDAQIRQGLEIISQCFDEAKQ,soluble
4,MGSDKIHHHHHHMLVYIGNGHYCYSNSTAMFLSSIGENVSPQLVEILTGVGLGAMIEYEKNLYFSMRDPDDGINYALNILGFTAEEHQQASDLDDPFPLLKQQIKQNPVILGPLDMGELTYHPNHKNLNGSDHYVLGYQMDNENIYVQDPAGFPFVPLSLDQFKKAWMAERIPYRKGINKYWSTAKKVVTLDNNEIYERAIDYFKRTYRKFEKVDIGLIGREAICFYADQLLNAPITADTIRHTTFFLFQLSARRANDYAMYFKDRHSHLSVLKTEQAKVFGICHSMSVNKDWKGISEKLMKLADLEDNFRLELLKVGY,not soluble
5,MTKNKSVARDERYYKAYLESRTISRRGLFRGLLKGVQPSTTTAPSDITAPPPLRPPYAIDEPHFQQSCTGCGVCVAACEENLIVMVNQRPALNFSTPYFSTPYCSRCQACSTACQTGALSSAEFHIAARPSVKNICQNTYIYCDSCADYCEKQALIWQANQPPTLVTELCDGCGECVFRCPARILEMQI,not soluble
6,MSVIKIEKALKLDKVIFVDVRTEGEYEEDHILNAINMPLFKNNEHNEVGTIYKMQGKHEAIQKGFDYVSYKLKDIYLQAAELALNYDNIVIYCARGGMRSGSIVNLLSSLGVNVYQLEGGYKAYRNFVLEYLRHVMDTKNFVSVHGLTGTGKTDLLHLLDENGIDVLDLEGIAKNSGSTFGFITFDKKPPSQKNFETKLFESIFFSKENYIFVESESKRVGSVTVPNEIFEAMTREGHHILLECDIENRVDRLCRDYIYDKDEGNILILKECINKFRKRLGNKVVDDYIDLLESGEYKELVKRYLLEYYDPLYMHSVEKYKYSKIINFNDTQKALEDVIDLYESILEGESEC,not soluble
7,MSLSETLTLSDAKSIIENQIEELAKRNKEPEWMTKIRYKALEEFMKAPLNDPVIDEETLLNFIAKPEIEGIPEKVESLDDLPPEMKDLLDRLGINEVEQKYIAGLAVQTDTGVIYNQFLQEWAKKGLIVLPTEEAVRRYPDIMKEHFLKLFKAGESKLTAYHIAIWNGGIFLYVKENLKVPFPLHLFFLIQESSLAQAPHITIIAEKNSEVHLIEGCTAPILVRHSLHLDMTEAYLHENAKVRLTVLQNWPEYVHTRPMTRAKVGRNAEFINTTVSLGAGKSNIANPKYWVGENGYVELNGVILGQKDWYIDLGGEMHLQGEGGRGINASKSVIMDESTVITRGKIVAEAKKTKGHISCDALLLSDKARMETYPGLVSLVDEAELSHEAAIGKIKEEELFYLMSRGLSEEKATQLIVKGFVEPMLKDIPIEFVVEIKKIIELAVSGGFEGHHHHHH,soluble
8,MASQVSQMPSSSPLSSNKDEMRPKADFQPSIWGDLFLNCPDKNIDAETEKRHQQLKEEVRKMIVAPMANSTQKLAFIDSVQRLGVSYHFTKEIEDELENIYHNNNDAENDLYTTSIRFRLLREHGYNVSCDVFNKFKDEQGNFKSSVTSDVRGLLELYQASYLRVHGEDILDEAISFTTHHLSLAVASLDHPLSEEVSHALKQSIRRGLPRVEARHYLSVYQDIESHNKALLEFAKIDFNMLQFLHRKELSEICRWWKDLDFQRKLPYARDRVVEGYFWISGVYFEPQYSLGRKMLTKVIAMASIVDDTYDSYATYEELIPYTNAIERWDIKCIDEIPEYMKPSYKALLDVYEEMVQLVAEHGRQYRVEYAKNAMIRLAQSYLVEAKWTLQNYKPSFEEFKANALPTCGYAMLAITSFVGMGDIVTPETFKWAASDPKIIQASTIICRFMDDVAEHKFKHRREDDCSAIECYMEEYGVTAQEAYDVFNKHVESAWKDLNQEFLKPTEMPTEVLNRSLNLARVMDVLYREGDGYTYVGKAAKGGITSLLIEPIAL,soluble
9,MGSDKIHHHHHHACSISYKFNGSSIDYTKVKTISFENFPNRSAGFVWGPMENMFNTALQDIYMQQTRLKQVKRSGDLQLSGEITNYEAFNKGIGSDGYSSMVELRMTVRVNFVNSSNPTENMNGQQFSASREYNSNQQLSAVQDELVNQMIKEIVEQIFNATVANW,not soluble
10,MGSDKIHHHHHHMDTFHLMKVYIAVAEEQGFSAASRRLNMSAPTVTRAVAHLEETLKVKLLNRTTRYVRMTEAGARYLEDAKRILHDVKVANEAALGINATPQGKISVTAPVLFGQQFVLPTITDYLVRYPQTQVNAVFLDRVVNLLEEGHDVGIRIGELHDSSMRAKKVGNVRLILVASPEYLAKNGIPKNCQELAQHTLIAANTGSLNPDWQFLVNKKNQTIKINPRLTVTTNQAAINAAKNGLGITRIISYQVAEELKNNKLKILLENFEYPAKPINIVHREDKFSSAKVRSFIDLLAENLQTNSALN,not soluble
11,MLMNNNNVYSLNNFDFLARSFARMQAEGRPVDIQAVTGNMDEEHRDWFCKRYALYCQQATQAKRLELEH,not soluble
12,MEITKTDLFYNISEQQQAEMMHCFKTYTRTYKSGEVICFYDDNNIGVGIIESGSARVIHFLPNGTQTILEQLCRGDLFGQLFYHYACPESISLEATCDCVVRFIDYEHIIKRCSKACPHHSQLVNNILVIISDKTRSICEHLEVLSGRTIRDRLNNYFEILSSKSGSNTFKLPFTMTALADYLSVDRSAMSRELKKMKDEGLIQTNKGIVTINR,not soluble
13,MSLKVWITGAGGMMGSHLAEMLLAAGHDVYATYCRPTIDPSDLQFNGAEVDITDWCSVYDSIATFRPDAVFHLAAQSYPAVSWARPVETLTTNMVGTAIVFEALRRVRPHAKIIVAGSSAEYGFVDPSEVPINERRELRPLHPYGVSKAATDMLAYQYHKSYGMHTVVARIFNCTGPRKVGDALSDFVRRCTWLEHHPEQSAIRVGNLKTKRTIVDVRDLNRALMLMLDKGEAGADYNVGGSIAYEMGDVLKQVIAACKRDDIVPEVDPALLRPTDEKIIYGDCSKLAAITGWQQEICLTQTIADMFDYWRSKSESAEGHHHHHH,soluble
14,MSVSLLRGRTVRRVLSVLVVAGLLGAGATGCSNDAGAKTENTVDASPTPTNTPTDGEGDSEGAEEPVEDTPAEPEQRPVPEEPEAMKTGDKAGAIAAATFFVEVIEYDATQPDSRFFSKYAYEECGWCNEYKKTHEQQANSNFSLINTNINLEDIKTASFAGEGSVLWSVPINANVSSHYKSKKDDEVVETEHTLTGNMLVGYRNGQWLLVEGDLLVK,not soluble
